In the supplement of paper PMC9112550, “Optimization of the antimicrobial peptide Bac7 by deep mutational scanning” (BMC Biology, 2022):

Each sequence was assayed on Escherichia coli TOP10 (assay: shrunken log2 fold change of peptide-encoding DNA abundance (4.5 h post-induction vs induction); higher = less antimicrobial activity (less host growth inhibition)). Conditions: time post-induction: 4.5 h; library: site-saturation at positions 5, 18, 19, 20.
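Further: peptides expressed intracellularly from a pBAD plasmid library in pooled LB shake-flask culture, induced with 0.3% L-arabinose, DNA abundance read by NGS, three biological replicates, DESeq2 with apeglm shrinkage.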

Row | Sequence | shrunken log2 fold change
1 | RRIRGRPPRLPRPRPRPWRPPRP | 0.376
2 | RRIRGRPPRLPRPRPRPWSLPRP | 0.094
3 | RRIRGRPPRLPRPRPRPWSQPRP | 0.142
4 | RRIRGRPPRLPRPRPRPWTAPRP | 0.172
5 | RRIRGRPPRLPRPRPRPWTLPRP | 0.161
6 | RRIRGRPPRLPRPRPRPWTWPRP | 0.339
7 | RRIRGRPPRLPRPRPRPWVQPRP | 0.0601
8 | RRIRGRPPRLPRPRPRPWWKPRP | 0.0639
9 | RRIRGRPPRLPRPRPRPWWPPRP | 0.404
10 | RRIRGRPPRLPRPRPRPYAGPRP | -0.0412
11 | RRIRGRPPRLPRPRPRPYCMPRP | -0.148
12 | RRIRGRPPRLPRPRPRPYDKPRP | -0.147
13 | RRIRGRPPRLPRPRPRPYDWPRP | 0.0669
14 | RRIRGRPPRLPRPRPRPYDYPRP | -0.15
15 | RRIRGRPPRLPRPRPRPYEGPRP | -0.199
16 | RRIRGRPPRLPRPRPRPYEHPRP | 0.256
17 | RRIRGRPPRLPRPRPRPYESPRP | 0.133
18 | RRIRGRPPRLPRPRPRPYEVPRP | 0.0996
19 | RRIRGRPPRLPRPRPRPYFNPRP | -0.439
20 | RRIRGRPPRLPRPRPRPYFPPRP | -0.37
21 | RRIRGRPPRLPRPRPRPYGDPRP | -0.176
22 | RRIRGRPPRLPRPRPRPYGPPRP | 0.0138
23 | RRIRGRPPRLPRPRPRPYHFPRP | -0.041
24 | RRIRGRPPRLPRPRPRPYHYPRP | -0.149
25 | RRIRGRPPRLPRPRPRPYICPRP | -0.423

Row | Sequence | shrunken log2 fold change
26 | RRIRGRPPRLPRPRPRPYIFPRP | -0.135
27 | RRIRGRPPRLPRPRPRPYIPPRP | -0.801
28 | RRIRGRPPRLPRPRPRPYIWPRP | -0.107
29 | RRIRGRPPRLPRPRPRPYKGPRP | -0.236
30 | RRIRGRPPRLPRPRPRPYLDPRP | 0.0767
31 | RRIRGRPPRLPRPRPRPYLWPRP | 0.146
32 | RRIRGRPPRLPRPRPRPYPDPRP | 0.201
33 | RRIRGRPPRLPRPRPRPYPFPRP | -0.164
34 | RRIRGRPPRLPRPRPRPYPLPRP | -0.236
35 | RRIRGRPPRLPRPRPRPYQRPRP | 0.189
36 | RRIRGRPPRLPRPRPRPYQSPRP | 0.00308
37 | RRIRGRPPRLPRPRPRPYSKPRP | -0.2
38 | RRIRGRPPRLPRPRPRPYYDPRP | -0.294
39 | RRIRHRPPRLPRPRPRPAAAPRP | 0.443
40 | RRIRHRPPRLPRPRPRPAAKPRP | 0.218
41 | RRIRHRPPRLPRPRPRPACCPRP | -0.0888
42 | RRIRHRPPRLPRPRPRPADFPRP | 0.116
43 | RRIRHRPPRLPRPRPRPAECPRP | -0.696
44 | RRIRHRPPRLPRPRPRPAFPPRP | 0.46
45 | RRIRHRPPRLPRPRPRPAGTPRP | -0.04
46 | RRIRHRPPRLPRPRPRPAGWPRP | 0.449
47 | RRIRHRPPRLPRPRPRPAKHPRP | -0.0767
48 | RRIRHRPPRLPRPRPRPAMAPRP | 0.126
49 | RRIRHRPPRLPRPRPRPAMFPRP | 0.0207
50 | RRIRHRPPRLPRPRPRPAMNPRP | -0.0974

Row | Sequence | shrunken log2 fold change
51 | RRIRHRPPRLPRPRPRPAQLPRP | -0.3
52 | RRIRHRPPRLPRPRPRPAQPPRP | 0.1
53 | RRIRHRPPRLPRPRPRPASCPRP | -0.5
54 | RRIRHRPPRLPRPRPRPASIPRP | -0.164
55 | RRIRHRPPRLPRPRPRPASMPRP | 0.0822
56 | RRIRHRPPRLPRPRPRPAVKPRP | -0.0915
57 | RRIRHRPPRLPRPRPRPAWCPRP | 0.081
58 | RRIRHRPPRLPRPRPRPAWHPRP | -0.132
59 | RRIRHRPPRLPRPRPRPAWSPRP | -0.0185
60 | RRIRHRPPRLPRPRPRPCAAPRP | -0.195
61 | RRIRHRPPRLPRPRPRPCAFPRP | -0.176
62 | RRIRHRPPRLPRPRPRPCAMPRP | -0.257
63 | RRIRHRPPRLPRPRPRPCAQPRP | 0.000337
64 | RRIRHRPPRLPRPRPRPCDMPRP | -0.302
65 | RRIRHRPPRLPRPRPRPCEFPRP | -0.324
66 | RRIRHRPPRLPRPRPRPCFTPRP | -0.838
67 | RRIRHRPPRLPRPRPRPCGNPRP | -0.196
68 | RRIRHRPPRLPRPRPRPCKAPRP | -0.0317
69 | RRIRHRPPRLPRPRPRPCMFPRP | -0.995
70 | RRIRHRPPRLPRPRPRPCMHPRP | -0.38
71 | RRIRHRPPRLPRPRPRPCMVPRP | -0.342
72 | RRIRHRPPRLPRPRPRPCNGPRP | -0.00865
73 | RRIRHRPPRLPRPRPRPCQHPRP | -0.214
74 | RRIRHRPPRLPRPRPRPCQTPRP | -0.0148
75 | RRIRHRPPRLPRPRPRPCRTPRP | 0.00884
